Test results from patent US20160272683A1 (Novo Nordisk, published 2016).
Numbered stars: 1 amine (or outer) side, 2 acyl side, 3 side chain; on linkers, the order of the positions; unused ones are H or OH. Side chains are listed from the residue outwards. Ends that are not written are not given here. * marks the point of attachment. C20 diacid = O=C(O)CCCCCCCCCCCCCCCCCCC(=O)*; C18 diacid = O=C(O)CCCCCCCCCCCCCCCCC(=O)*; C16 diacid = O=C(O)CCCCCCCCCCCCCCC(=O)*; γGlu = O=C(O)[C@H](CCC(=O)[*:2])N[*:1]; C14 diacid = O=C(O)CCCCCCCCCCCCC(=O)*; AEEA = NCCOCCOCC(=O)O

Legend:
[1] = molecular target: rat amylin receptor (rat calcitonin receptor with rat RAMP 3) (rat) (UniProt P32214); test: SPA competition vs 125I-rat amylin, membranes with rat CTR + rat RAMP3 (Assay VI)
[2] = molecular target: T1, human calcitonin receptor (human, UniProt P30988 25-474); test: SPA competition vs 125I-calcitonin, membranes with human CTR (Assay VII)
T1 construct: whole, on cells; Assay VII: membranes on SPA beads; also called hCT-R; hCTR
T1 sequence (looked up): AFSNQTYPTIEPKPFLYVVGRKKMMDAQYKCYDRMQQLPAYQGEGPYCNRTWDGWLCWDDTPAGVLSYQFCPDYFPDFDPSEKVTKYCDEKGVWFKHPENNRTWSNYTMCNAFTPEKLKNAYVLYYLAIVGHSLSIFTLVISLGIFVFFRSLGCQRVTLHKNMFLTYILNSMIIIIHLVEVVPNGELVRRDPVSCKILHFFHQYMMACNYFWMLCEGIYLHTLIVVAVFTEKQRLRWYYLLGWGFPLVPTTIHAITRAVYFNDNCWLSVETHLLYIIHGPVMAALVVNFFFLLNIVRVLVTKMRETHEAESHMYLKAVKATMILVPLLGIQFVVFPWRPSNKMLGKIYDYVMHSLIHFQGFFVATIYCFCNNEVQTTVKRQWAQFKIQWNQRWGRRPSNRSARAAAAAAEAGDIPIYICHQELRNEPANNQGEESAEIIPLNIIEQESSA
In short: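 SPA competition on membranes from BHK tk'ts 13 cells stably expressing human calcitonin receptor plus CRE-luciferase reporter; membranes 35 ng/μL final with 0.05 mg/well beads.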

[3] = molecular target: T2, human amylin receptor (amylin 3(a) receptor: human calcitonin receptor with RAMP-3) (human, UniProt P30988 25-474; O60896 24-148, limits assumed); test: SPA competition vs 125I-rat amylin, membranes with human CTR + RAMP-3 (Assay V)
T2 construct: whole, on cells; Assay V: membranes of the Amylin 3(a)/CRE-luc BHK cells on SPA beads; also called hAmylin-R
T2 sequence (looked up) 1: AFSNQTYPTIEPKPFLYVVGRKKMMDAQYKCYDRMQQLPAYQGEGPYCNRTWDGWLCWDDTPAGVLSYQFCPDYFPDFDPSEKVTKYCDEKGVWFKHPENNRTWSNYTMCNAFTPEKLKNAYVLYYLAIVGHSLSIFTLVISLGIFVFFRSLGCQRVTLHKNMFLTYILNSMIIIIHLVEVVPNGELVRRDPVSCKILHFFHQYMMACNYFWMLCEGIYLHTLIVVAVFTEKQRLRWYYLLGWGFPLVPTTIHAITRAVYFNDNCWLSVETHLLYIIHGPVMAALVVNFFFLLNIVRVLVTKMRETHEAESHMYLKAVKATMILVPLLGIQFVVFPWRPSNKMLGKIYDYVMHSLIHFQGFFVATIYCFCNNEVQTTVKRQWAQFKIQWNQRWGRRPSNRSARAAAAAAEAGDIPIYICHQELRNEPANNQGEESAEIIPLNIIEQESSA
T2 sequence (looked up) 2: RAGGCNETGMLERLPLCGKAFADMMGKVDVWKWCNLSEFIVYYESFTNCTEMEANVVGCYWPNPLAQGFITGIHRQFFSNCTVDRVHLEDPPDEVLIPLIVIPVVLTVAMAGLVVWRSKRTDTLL

[4] = molecular target: rat calcitonin receptor (rat) (UniProt P32214); test: SPA competition vs 125I-calcitonin, membranes with rat CTR (Assay VIII)

[N-terminal(C20 diacid-gGlu-2xOEG), des1, 4G, 9V, 15Q, 21Q, 23Y, 30S, 31G, 32T, 33Y]mimylin (peptide)
IC50 [1]: 0.029 nM

B1: [N-terminal(C14 diacid), des1, 30S, 31G]mimylin (peptide)
peptide: {C14 diacid}-ASELSTAALGRLSAELHELATLPRTETGSGSP-NH2
notes: mimylin derivative; des1 = residue 1 deleted; also called Ex. #51; 51
IC50 [2]: 0.14 nM | IC50 [3]: 0.773 nM

B2: [N-terminal(C20 diacid-gGlu-5xOEG), des1, 30S, 31G]mimylin (peptide)
peptide: {C20 diacid-γGlu-AEEA-AEEA-AEEA-AEEA-AEEA}-ASELSTAALGRLSAELHELATLPRTETGSGSP-NH2
notes: mimylin derivative; des1 = residue 1 deleted; also called Ex. #45; 45
IC50 [2]: 0.112 nM | IC50 [3]: 0.389 nM

B3: [des1, 4K(C20 diacid-gGlu), 30S, 31G]mimylin (peptide)
peptide: ASK([γGlu-C20 diacid])LSTAALGRLSAELHELATLPRTETGSGSP-NH2
modifications: N-terminus assumed
SMILES: CC(C)C[C@H](NC(=O)[C@H](C)NC(=O)[C@H](C)NC(=O)[C@@H](NC(=O)[C@H](CO)NC(=O)[C@H](CC(C)C)NC(=O)[C@H](CCCCNC(=O)CC[C@H](NC(=O)CCCCCCCCCCCCCCCCCCC(=O)O)C(=O)O)NC(=O)[C@H](CO)NC(=O)[C@H](C)N)[C@@H](C)O)C(=O)NCC(=O)N[C@@H](CCCNC(=N)N)C(=O)N[C@@H](CC(C)C)C(=O)N[C@@H](CO)C(=O)N[C@@H](C)C(=O)N[C@@H](CCC(=O)O)C(=O)N[C@@H](CC(C)C)C(=O)N[C@@H](Cc1c[nH]cn1)C(=O)N[C@@H](CCC(=O)O)C(=O)N[C@@H](CC(C)C)C(=O)N[C@@H](C)C(=O)N[C@H](C(=O)N[C@@H](CC(C)C)C(=O)N1CCC[C@H]1C(=O)N[C@@H](CCCNC(=N)N)C(=O)N[C@H](C(=O)N[C@@H](CCC(=O)O)C(=O)N[C@H](C(=O)NCC(=O)N[C@@H](CO)C(=O)NCC(=O)N[C@@H](CO)C(=O)N1CCC[C@H]1C(N)=O)[C@@H](C)O)[C@@H](C)O)[C@@H](C)O
IC50 [4]: 0.114 nM

B4: [N-terminal(C20 diacid-gGlu-3xOEG), des1, 30S, 31G]mimylin (peptide)
peptide: {C20 diacid-γGlu-AEEA-AEEA-AEEA}-ASELSTAALGRLSAELHELATLPRTETGSGSP-NH2
notes: mimylin derivative; des1 = residue 1 deleted; also called Ex. #43; 43
IC50 [2]: 0.05 nM | IC50 [3]: 0.164 nM

B5: [N-terminal(C20 diacid-gGlu), 1A, 23Y, 30S, 31G]mimylin (peptide)
peptide: {C20 diacid-γGlu}-AASELSTAALGRLSAELHELATYPRTETGSGSP-NH2
SMILES: CC(C)C[C@H](NC(=O)[C@H](C)NC(=O)[C@H](C)NC(=O)[C@@H](NC(=O)[C@H](CO)NC(=O)[C@H](CC(C)C)NC(=O)[C@H](CCC(=O)O)NC(=O)[C@H](CO)NC(=O)[C@H](C)NC(=O)[C@H](C)NC(=O)CC[C@H](NC(=O)CCCCCCCCCCCCCCCCCCC(=O)O)C(=O)O)[C@@H](C)O)C(=O)NCC(=O)N[C@@H](CCCNC(=N)N)C(=O)N[C@@H](CC(C)C)C(=O)N[C@@H](CO)C(=O)N[C@@H](C)C(=O)N[C@@H](CCC(=O)O)C(=O)N[C@@H](CC(C)C)C(=O)N[C@@H](Cc1c[nH]cn1)C(=O)N[C@@H](CCC(=O)O)C(=O)N[C@@H](CC(C)C)C(=O)N[C@@H](C)C(=O)N[C@H](C(=O)N[C@@H](Cc1ccc(O)cc1)C(=O)N1CCC[C@H]1C(=O)N[C@@H](CCCNC(=N)N)C(=O)N[C@H](C(=O)N[C@@H](CCC(=O)O)C(=O)N[C@H](C(=O)NCC(=O)N[C@@H](CO)C(=O)NCC(=O)N[C@@H](CO)C(=O)N1CCC[C@H]1C(N)=O)[C@@H](C)O)[C@@H](C)O)[C@@H](C)O
notes: mimylin derivative; also called Ex. #57; 57
IC50 [2]: 0.108 nM | IC50 [3]: 0.124 nM

B6: [N-terminal(C14 diacid-gGlu), des1, 30S, 31G]mimylin (peptide)
peptide: {C14 diacid-γGlu}-ASELSTAALGRLSAELHELATLPRTETGSGSP-NH2
notes: mimylin derivative; des1 = residue 1 deleted; also called Ex. #50; 50
IC50 [2]: 0.023 nM | IC50 [3]: 0.054 nM

B7: [N-terminal(C18 diacid), des1, 30S, 31G]mimylin (peptide)
peptide: {C18 diacid}-ASELSTAALGRLSAELHELATLPRTETGSGSP-NH2
notes: mimylin derivative; des1 = residue 1 deleted; also called Ex. #48; 48
IC50 [2]: 0.034 nM | IC50 [3]: 0.077 nM

B8: [N-terminal(C18 diacid-gGlu), des1, 30S, 31G]mimylin (peptide)
peptide: {C18 diacid-γGlu}-ASELSTAALGRLSAELHELATLPRTETGSGSP-NH2
notes: mimylin derivative; des1 = residue 1 deleted; also called Ex. #46; 46
IC50 [2]: 0.084 nM | IC50 [3]: 0.516 nM

B9: [N-terminal(C16 diacid-gGlu), des1, 30S, 31G]mimylin (peptide)
peptide: {C16 diacid-γGlu}-ASELSTAALGRLSAELHELATLPRTETGSGSP-NH2
notes: mimylin derivative; des1 = residue 1 deleted; also called Ex. #47; 47
IC50 [2]: 0.024 nM | IC50 [3]: 0.037 nM

{C14 diacid}-ASELSTAALGRLSAELHELATLPRTETGSGSP-NH2
IC50 [4]: 0.123 nM

B10: [N-terminal(C20 diacid-gGlu), des1, 4Q, 9V, 15Q, 16R, 19R, 21Q, 23Y, 27Q, 30S, 31Q, 32T, 33Y]mimylin (peptide)
peptide: {C20 diacid-γGlu}-ASQLSTAVLGRLSQRLHRLQTYPRTQTGSQTY-NH2
SMILES: CC(C)C[C@H](NC(=O)[C@H](CCCNC(=N)N)NC(=O)CNC(=O)[C@H](CC(C)C)NC(=O)[C@@H](NC(=O)[C@H](C)NC(=O)[C@@H](NC(=O)[C@H](CO)NC(=O)[C@H](CC(C)C)NC(=O)[C@H](CCC(N)=O)NC(=O)[C@H](CO)NC(=O)[C@H](C)NC(=O)CC[C@H](NC(=O)CCCCCCCCCCCCCCCCCCC(=O)O)C(=O)O)[C@@H](C)O)C(C)C)C(=O)N[C@@H](CO)C(=O)N[C@@H](CCC(N)=O)C(=O)N[C@@H](CCCNC(=N)N)C(=O)N[C@@H](CC(C)C)C(=O)N[C@@H](Cc1c[nH]cn1)C(=O)N[C@@H](CCCNC(=N)N)C(=O)N[C@@H](CC(C)C)C(=O)N[C@@H](CCC(N)=O)C(=O)N[C@H](C(=O)N[C@@H](Cc1ccc(O)cc1)C(=O)N1CCC[C@H]1C(=O)N[C@@H](CCCNC(=N)N)C(=O)N[C@H](C(=O)N[C@@H](CCC(N)=O)C(=O)N[C@H](C(=O)NCC(=O)N[C@@H](CO)C(=O)N[C@@H](CCC(N)=O)C(=O)N[C@H](C(=O)N[C@@H](Cc1ccc(O)cc1)C(N)=O)[C@@H](C)O)[C@@H](C)O)[C@@H](C)O)[C@@H](C)O
notes: mimylin derivative; des1 = residue 1 deleted; also called Ex. #132; 132
IC50 [2]: 0.131 nM | IC50 [3]: 0.39 nM

B11: [N-terminal(C20 diacid-gGlu), des1, 9T, 21S, 23Y, 30S, 31G, 33Y]mimylin (peptide)
peptide: {C20 diacid-γGlu}-ASELSTATLGRLSAELHELSTYPRTETGSGSY-NH2
SMILES: CC(C)C[C@H](NC(=O)[C@H](CCCNC(=N)N)NC(=O)CNC(=O)[C@H](CC(C)C)NC(=O)[C@@H](NC(=O)[C@H](C)NC(=O)[C@@H](NC(=O)[C@H](CO)NC(=O)[C@H](CC(C)C)NC(=O)[C@H](CCC(=O)O)NC(=O)[C@H](CO)NC(=O)[C@H](C)NC(=O)CC[C@H](NC(=O)CCCCCCCCCCCCCCCCCCC(=O)O)C(=O)O)[C@@H](C)O)[C@@H](C)O)C(=O)N[C@@H](CO)C(=O)N[C@@H](C)C(=O)N[C@@H](CCC(=O)O)C(=O)N[C@@H](CC(C)C)C(=O)N[C@@H](Cc1c[nH]cn1)C(=O)N[C@@H](CCC(=O)O)C(=O)N[C@@H](CC(C)C)C(=O)N[C@@H](CO)C(=O)N[C@H](C(=O)N[C@@H](Cc1ccc(O)cc1)C(=O)N1CCC[C@H]1C(=O)N[C@@H](CCCNC(=N)N)C(=O)N[C@H](C(=O)N[C@@H](CCC(=O)O)C(=O)N[C@H](C(=O)NCC(=O)N[C@@H](CO)C(=O)NCC(=O)N[C@@H](CO)C(=O)N[C@@H](Cc1ccc(O)cc1)C(N)=O)[C@@H](C)O)[C@@H](C)O)[C@@H](C)O
IC50 [4]: 0.069 nM | IC50 [1]: 0.045 nM

B12: [N-terminal(C16 diacid), des1, 30S, 31G]mimylin (peptide)
peptide: {C16 diacid}-ASELSTAALGRLSAELHELATLPRTETGSGSP-NH2
notes: mimylin derivative; des1 = residue 1 deleted; also called Ex. #49; 49
IC50 [2]: 0.011 nM | IC50 [3]: 0.015 nM
